First the molecules themselves.
B1: Fatty acid-binding protein, intestinal, P02693 (parent)
chain: MAFDGTWKVDRNENYEKFMEKMGINVVKRKLGAHDNLKLTITQEGNKFTVKESSNFRNIDVVFELGVDFAYSLADGTELTGTWTMEGNKLVGKFKRVDNGKELIAVREISGNELIQTYTYEGVEAKRIFKKE

The variants in this series derive from B1. To be noted: Rattus norvegicus; pH 7.3; 20 °C; GdnHCl; Fluorescence; potassium phosphate 20 mM; structure 1IFB; whole UniProt chain shown.

Consider five variants from FireProtDB (doi:10.1021/bi012042l).

Take MAFDGTWKVDRNENYEKFMEKMGINVVKRKLGAHDNLKLTITQEPNKFTVKESSNFRNIDVVFELGVDFAYSLADGTELTGTWTMEGNKLVGKFKRVDNGKELIAVREISGNELIQTYTYEGVEAKRIFKKE: the “denaturant midpoint (higher = more stable)” value (shortened to “denaturant midpoint”) turned out to be 0.8 M and the unfolding free energy came to 3.1 kcal/mol.
In the case of MAFDGTWKVDRNENYEKFMEKMGINVVKRKLGAHDNLKLTITQEGNKFTVKESSNFRNIDVVFELPVDFAYSLADGTELTGTWTMEGNKLVGKFKRVDNGKELIAVREISGNELIQTYTYEGVEAKRIFKKE, the “denaturant midpoint” value is 0.9 M and the unfolding free energy is 2.5 kcal/mol.
As to MAFDGTWKVDRNENYEKFMEKMGINVVKRKLGAHDNLKLTITQEGNKFTVKESSNFRNIDVVFELGVDFAYSLADGTELTGTWTMEGNKLVGKFKRVDNGKELIAVREISPNELIQTYTYEGVEAKRIFKKE, the “denaturant midpoint” value was 1 M and the unfolding free energy was 5 kcal/mol.
For the variant MAFDGTWKVDRNENYEKFMEKMGINVVKRKLGAHDNLKLTITQEGNKFTVKESSNFRNIDVVFELGVDFAYSLADGTELTGTWTMEGNKLVGKFKRVDNGKELIAVREISGNELIQTYTYEPVEAKRIFKKE, the “denaturant midpoint” value was found to be 0.6 M and the unfolding free energy was 1.2 kcal/mol.
As for MAFDGTWKVDRNENYEKFMEKMGINVVKRKLGAHDNLKLTITQEGNKFTVKESSNFRNIDVVFELGVDFAYSLADGTELTGTWTMEGNKLVGKFKRVDNPKELIAVREISGNELIQTYTYEGVEAKRIFKKE, the “denaturant midpoint” value stood at 0.7 M and the unfolding free energy was found to be 3.5 kcal/mol.
